# Laboratory results: patent publication US20230025129A1 (KYMAB, published 2023)
# Numbering of substitutions follows the chain as printed.
# T1: human matriptase-2 ECD protein his tag (human, UniProt Q8IU80 78-811)
# T1 sequence: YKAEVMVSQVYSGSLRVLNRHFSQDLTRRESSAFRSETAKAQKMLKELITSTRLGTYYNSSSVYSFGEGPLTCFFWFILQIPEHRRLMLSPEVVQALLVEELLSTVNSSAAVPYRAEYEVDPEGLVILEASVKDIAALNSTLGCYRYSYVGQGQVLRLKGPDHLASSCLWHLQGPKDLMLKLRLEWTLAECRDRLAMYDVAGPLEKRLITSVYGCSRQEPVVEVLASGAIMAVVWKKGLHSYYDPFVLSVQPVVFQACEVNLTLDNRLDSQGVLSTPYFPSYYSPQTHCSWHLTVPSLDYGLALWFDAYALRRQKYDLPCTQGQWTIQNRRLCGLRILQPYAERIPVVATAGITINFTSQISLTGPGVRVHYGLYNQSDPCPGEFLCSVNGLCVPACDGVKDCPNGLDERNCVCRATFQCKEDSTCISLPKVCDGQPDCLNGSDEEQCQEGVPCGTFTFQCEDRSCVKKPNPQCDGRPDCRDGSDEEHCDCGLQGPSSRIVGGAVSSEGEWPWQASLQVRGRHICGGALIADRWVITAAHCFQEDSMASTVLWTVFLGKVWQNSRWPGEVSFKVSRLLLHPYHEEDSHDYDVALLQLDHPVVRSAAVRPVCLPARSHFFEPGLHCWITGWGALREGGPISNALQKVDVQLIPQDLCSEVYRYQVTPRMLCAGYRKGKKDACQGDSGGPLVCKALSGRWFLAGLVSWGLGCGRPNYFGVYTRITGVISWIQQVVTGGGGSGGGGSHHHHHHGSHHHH
# T2: mouse matriptase-2 ECD protein his tag (mouse, UniProt Q9DBI0 80-811)
# T2 sequence: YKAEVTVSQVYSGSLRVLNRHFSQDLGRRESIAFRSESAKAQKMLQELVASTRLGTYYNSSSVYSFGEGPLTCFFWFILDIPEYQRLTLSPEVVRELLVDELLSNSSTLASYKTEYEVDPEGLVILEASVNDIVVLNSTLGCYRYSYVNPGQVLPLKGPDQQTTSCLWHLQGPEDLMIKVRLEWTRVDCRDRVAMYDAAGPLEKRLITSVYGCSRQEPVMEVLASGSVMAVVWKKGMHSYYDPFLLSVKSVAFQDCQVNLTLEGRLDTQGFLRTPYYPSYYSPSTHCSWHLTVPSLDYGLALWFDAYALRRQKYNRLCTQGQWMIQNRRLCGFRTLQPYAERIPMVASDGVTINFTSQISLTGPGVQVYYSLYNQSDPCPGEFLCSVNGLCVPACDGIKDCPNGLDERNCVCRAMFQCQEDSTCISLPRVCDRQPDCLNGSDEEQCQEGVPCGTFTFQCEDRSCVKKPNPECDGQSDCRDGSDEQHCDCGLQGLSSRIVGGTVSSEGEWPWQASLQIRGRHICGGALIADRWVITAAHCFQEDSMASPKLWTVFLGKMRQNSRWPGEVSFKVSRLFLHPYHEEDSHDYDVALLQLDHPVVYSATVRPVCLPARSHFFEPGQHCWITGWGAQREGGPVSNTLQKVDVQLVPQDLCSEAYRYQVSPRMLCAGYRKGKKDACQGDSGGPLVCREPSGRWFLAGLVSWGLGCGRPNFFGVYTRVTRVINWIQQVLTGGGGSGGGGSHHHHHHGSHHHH
# T3: human MTP-2 expressed on HEK293 cells (human, UniProt Q8IU80 1-811)
# T3 sequence: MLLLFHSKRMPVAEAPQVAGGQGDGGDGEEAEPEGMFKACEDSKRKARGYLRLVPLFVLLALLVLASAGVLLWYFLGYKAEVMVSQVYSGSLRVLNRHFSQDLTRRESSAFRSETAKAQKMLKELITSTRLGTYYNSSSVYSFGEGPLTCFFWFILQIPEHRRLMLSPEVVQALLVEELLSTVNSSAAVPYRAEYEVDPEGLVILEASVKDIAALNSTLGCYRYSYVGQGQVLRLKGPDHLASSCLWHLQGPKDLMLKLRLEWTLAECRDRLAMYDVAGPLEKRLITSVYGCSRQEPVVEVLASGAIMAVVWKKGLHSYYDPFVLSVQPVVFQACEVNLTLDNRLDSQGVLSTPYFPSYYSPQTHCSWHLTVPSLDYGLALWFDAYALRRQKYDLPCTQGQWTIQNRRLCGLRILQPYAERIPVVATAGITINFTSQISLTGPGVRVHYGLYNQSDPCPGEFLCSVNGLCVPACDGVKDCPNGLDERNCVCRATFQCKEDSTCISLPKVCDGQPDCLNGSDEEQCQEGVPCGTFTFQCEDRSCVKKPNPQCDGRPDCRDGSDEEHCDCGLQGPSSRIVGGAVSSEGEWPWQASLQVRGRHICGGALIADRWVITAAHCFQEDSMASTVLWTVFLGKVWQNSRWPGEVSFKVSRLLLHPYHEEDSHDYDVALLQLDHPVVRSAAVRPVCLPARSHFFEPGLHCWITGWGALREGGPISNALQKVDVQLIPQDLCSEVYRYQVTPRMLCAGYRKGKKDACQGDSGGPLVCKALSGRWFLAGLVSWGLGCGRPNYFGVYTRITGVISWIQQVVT
# B1: NORI-024 (antibody, human IgG4 S228P, lambda, V domains shown)
# VH: QVQLVQSGPELKKPGASVKVSCKASGYTFTNFGISWVRQAPGQGLEWMGWISAYSGFTNFAQKFQGRVSMTTDTSTSTVYMELKSLRSDDTAVYYCAREGYSNYEDWFDPWGQGTLVTVSS
# VL: SYELTQPPSVSVSPGQTARITCSGDALPKKYAYWYQQKSGQAPVLVIYEDSKRPSGIPERISGSNSGTMATLTISGAQVEDEADYYCYSTDSSGNHRVFGGGTKLTVLG
# B2: NORI-027 (antibody, human IgG4 S228P, lambda, V domains shown)
# VH: B1 VH with P9A, T30N, F32Y, F57Y, F60I, S69T, S77N, K84G, Y104F
# VL: B1 VL with A26E
# B3: NORI-022 (antibody, human IgG4 S228P, lambda, V domains shown)
# VH: EVRLVESGGGLVQSGGSLRLSCAASGFTFSTYTMNWVRQAPGKGLEWVSYISIRNSIIDYADSVKGRFTISRDNAKNSLYLQMNSLRDEDTAVYYCAREEFCGTTSCYFLDYWGQGILVTVSS
# VL: QSVLTQPPSVSGAPGQRVTISCTGSSSNIGAGYDVHWYQQLPGTAPKLLIYGNSNRPSGVPDRFSGSKSGTSASLAITGLQAEDEADYYCQSYDSSLSGYVFGTGTKVTVLG
# B4: NORI-031 (antibody, human IgG4 S228P, lambda, V domains shown)
# VH: QLQLQESGPGLVKPSETLSLTCTVSGGAISSSNYFWGWIRQSPGKGLEWIGSMYYTGITYYNPSLKSRVTISVDTSKNQLSLKVNSVTAADTAVYYCARQDGFRTGWFDPWGQGTLVTVSS
# VL: SYELTQPPSVSVSPGQTATLTCSGDKLGDNYVCWFQQKPGQSPLLVMYQDTKRPSGIPERFSGSNSGNTATLTISGTQALDEADYYCQAWDSRTVVFGGGTKLTVLG
# B5: NORI-032 (antibody, human IgG4 S228P, lambda, V domains shown)
# VH: QVQLVQSGAEVRKPGAAVKVSCKASGYTFSSFGITWIRQAPGQGLEWMGWISAYNGISNSAQKVQGRVTMTTDTSTSTAYMELRSLRSDDSAVYYCARDRANRDALDVWGQGTKVTVSL
# VL: SHELTQPPSMSVSPGQTASITCSGDELGDRYACWYQQKPGQSPVLVIYQDTKRPSGIPERFSGSISGNTATLTISGTQAMDEADYYCQAWDSSTVVFGGGTKLTVLG
# B6: NORI-025 (antibody, human IgG4 S228P, lambda, V domains shown)
# VH: QVQLVESGGGVVQPGRSLRLSCTASGVTFTNFDMHWVRQTPGKGLEWVAVIWYDESYSYYADSVQGRFTISRDNSKNSLYLQMNSLRADDTAVYYCARGWTGSYVFDYWGQGTLVTVSS
# VL: QSVLTQPPSVSEAPRQRVTISCSGSSSNIGNNAVNWYQQLPGKAPKLLISYDDLLPSGVSDRFSGSKSGTSASLAISGLQSADEADYYCAAWDDSLNAVVFGGGTKLTVLG
# B7: NORI-030 (antibody, human IgG4 S228P, lambda, V domains shown)
# VH: QVQLVESGGGVVQPGRSLRLSCAASGFTFSNFDMDWVRQAPGRGLEWVALISYDGSKKYYADSVKGRFTISRDNSKNTLYLQMNSLRGEDTAVYFCAKEGYGGYDGFDYWGQGTLVTVSS
# VL: B6 VL with S26T, D53Y, L54V, L55V, P56S, A90S, A91T, S95G, A98G
# B8: NORI-026 (antibody, human IgG4 S228P, kappa, V domains shown)
# VH: QVQLVESGGGVVQPGRSLRLSCAASGFTFSYFGMHWVRQAPGKGLEWVADISYDGSDENYADSVKGRFTISRDNSKNTLSLQMNSLRAEDTAVYYCAKETYQSLMYLEYWGQGILVTVSS
# VL: AIQMTQSPSSLSASVGDRVTITCRASQDIRNDLGWYQQKPGKAPKLLIYTAPSLQSGVPSRFSGSGSGTDFTLTIGSLQPEDFATYYCLQDYNYPWTFGQGTKVEIKR
# B9: NORI-023 (antibody, human IgG4 S228P, lambda, V domains shown)
# VH: QVQLVESGGGLVKPGGSLRLSCAASGFTFSDYYMSWIRQAPGKGLEWVSYISSSGGNRYYADSVKGRFTISRDNAKNSLYLQMNSLRAEDTAVYYCARGGLRYFDWADFWGQGTLVTVSS
# VL: QSVLTQPPSVSAAPGQKVTISCSGSSSNIGNNYVSWYQQLPGTAPKLLIYDNNKRPSGIPDRFSGSKSGTSATLGIPELQTGDEADYYCGTWDNSLSAGVFGGGTKLTVLG
# B10: NORI-028 (antibody, human IgG4 S228P, lambda, V domains shown)
# VH: EVQLVESGGAVVRPGGSLRLSCAISGFILDDYGMNWVRQGPGKGLEWVAGISWNGDSTRYADSVKGRFTISRDNAQNSLYLQMNSLRAEDTALYFCAREYSGDFYYYYYGMDVWGQGTTVTVSS
# VL: QSALTQPPSASGSPGQSVTISCTGTSSDVGFYNFVSWYQHHPGKAPKLMIYEVSKRPSGVPDRFSGSKSANTASLTVSGLQAEDEADYYCSSYAGSNNLVFGGGTKLTVLG
# B11: NORI-029 (antibody, human IgG4 S228P, lambda, V domains shown)
# VH: EVQLVESGGGLVKPGRSLRLSCTASGFTFGDYVMSWFRQAPGKGLEWVGFIRSKPYSETTEYAASVRGRFTISRDDSKSIAYLQMNSLKTEDTAVYYCTRALYDLLTGPWMGGDYFYALDVWGQGTTVTVSS
# VL: B10 VL with F31D, F34Y, H40Q, A70G, S91K
# Target: T1, human matriptase-2 ECD protein his tag
# Assay: cell-based or functional assay
row,Inhibition enzymatic activity human MTP2 protein (IC50) [nM],Binder
1,10.5,B1
2,24.9,B2
3,4.36,B3
4,10.3,B4
5,1.6,B5
6,3.27,B6
7,1.88,B7
8,5.11,B8
9,5.45,B9
10,11.8,B10
11,2,B11

# Target: T2, mouse matriptase-2 ECD protein his tag
# Assay: cell-based or functional assay
row,Inhibition enzymatic activity mouse MTP2 protein (IC50) [nM],Binder
1,6.8,B1
2,40.8,B2
3,2.98,B3
4,27,B4
5,0.716,B5
6,6.21,B6
7,6.66,B7
8,6.22,B8
9,2.92,B9
10,8.96,B10
11,9.35,B11

# Target: T3, human MTP-2 expressed on HEK293 cells
# Assay: cell-based or functional assay
row,Inhibition enzymatic activity human MTP2 on cells (IC50) [nM],Binder
1,8.04,B1
2,16.9,B2
3,0.765,B3
4,3.51,B4
5,1.66,B5
6,1.88,B6
7,0.227,B7
8,0.817,B8
9,13.2,B9
10,3.85,B10
11,0.243,B11
